Assay results as given in doi:10.1101/2020.11.17.386581 (bioRxiv, 2020).

Biological target: recombinant human tau 2N4R (as used in SPR) (human, UniProt P10636-8 1-441)
Test: SPR

B1: Recombinant human SORL1 aa 82-753 protein (domain or fragment, UniProt Q92673 82-753, looked up)
chain: SAALQPEPIKVYGQVSLNDSHNQMVVHWAGEKSNVIVALARDSLALARPKSSDVYVSYDYGKSFKKISDKLNFGLGNRSEAVIAQFYHSPADNKRYIFADAYAQYLWITFDFCNTLQGFSIPFRAADLLLHSKASNLLLGFDRSHPNKQLWKSDDFGQTWIMIQEHVKSFSWGIDPYDKPNTIYIERHEPSGYSTVFRSTDFFQSRENQEVILEEVRDFQLRDKYMFATKVVHLLGSEQQSSVQLWVSFGRKPMRAAQFVTRHPINEYYIADASEDQVFVCVSHSNNRTNLYISEAEGLKFSLSLENVLYYSPGGAGSDTLVRYFANEPFADFHRVEGLQGVYIATLINGSMNEENMRSVITFDKGGTWEFLQAPAFTGYGEKINCELSQGCSLHLAQRLSQLLNLQLRRMPILSKESAPGLIIATGSVGKNLASKTNVYISSSAGARWREALPGPHYYTWGDHGGIITAIAQGMETNELKYSTNEGETWKTFIFSEKPVFVYGLLTEPGEKSTVFTIFGSNKENVHSWLILQVNATDALGVPCTENDYKLWSPSDERGNECLLGHKTVFKRRTPHATCFNGEDFDRPVVVSNCSCTREDYECDFGFKMSEDLSLEVCVPDPEFSGKSYSPPVPCPVGSTYRRTRGYRKISGDTCSGGDVEARLEGELVPCP
Question: For B1, which Kd is on record?
Answer: Its Kd is 41 ± 9 nM.
